Legend:
[1] = molecular target: IRS-1, endogenous in Rat-1 fibroblasts and L6GLUT4myc myoblasts (UniProt P35570); experiment: cell-based or functional assay
[2] = molecular target: IRS-1, endogenous in COS cells; experiment: cell-based or functional assay
Chain of IRS-1, endogenous in COS cells (Q28224 whole entry): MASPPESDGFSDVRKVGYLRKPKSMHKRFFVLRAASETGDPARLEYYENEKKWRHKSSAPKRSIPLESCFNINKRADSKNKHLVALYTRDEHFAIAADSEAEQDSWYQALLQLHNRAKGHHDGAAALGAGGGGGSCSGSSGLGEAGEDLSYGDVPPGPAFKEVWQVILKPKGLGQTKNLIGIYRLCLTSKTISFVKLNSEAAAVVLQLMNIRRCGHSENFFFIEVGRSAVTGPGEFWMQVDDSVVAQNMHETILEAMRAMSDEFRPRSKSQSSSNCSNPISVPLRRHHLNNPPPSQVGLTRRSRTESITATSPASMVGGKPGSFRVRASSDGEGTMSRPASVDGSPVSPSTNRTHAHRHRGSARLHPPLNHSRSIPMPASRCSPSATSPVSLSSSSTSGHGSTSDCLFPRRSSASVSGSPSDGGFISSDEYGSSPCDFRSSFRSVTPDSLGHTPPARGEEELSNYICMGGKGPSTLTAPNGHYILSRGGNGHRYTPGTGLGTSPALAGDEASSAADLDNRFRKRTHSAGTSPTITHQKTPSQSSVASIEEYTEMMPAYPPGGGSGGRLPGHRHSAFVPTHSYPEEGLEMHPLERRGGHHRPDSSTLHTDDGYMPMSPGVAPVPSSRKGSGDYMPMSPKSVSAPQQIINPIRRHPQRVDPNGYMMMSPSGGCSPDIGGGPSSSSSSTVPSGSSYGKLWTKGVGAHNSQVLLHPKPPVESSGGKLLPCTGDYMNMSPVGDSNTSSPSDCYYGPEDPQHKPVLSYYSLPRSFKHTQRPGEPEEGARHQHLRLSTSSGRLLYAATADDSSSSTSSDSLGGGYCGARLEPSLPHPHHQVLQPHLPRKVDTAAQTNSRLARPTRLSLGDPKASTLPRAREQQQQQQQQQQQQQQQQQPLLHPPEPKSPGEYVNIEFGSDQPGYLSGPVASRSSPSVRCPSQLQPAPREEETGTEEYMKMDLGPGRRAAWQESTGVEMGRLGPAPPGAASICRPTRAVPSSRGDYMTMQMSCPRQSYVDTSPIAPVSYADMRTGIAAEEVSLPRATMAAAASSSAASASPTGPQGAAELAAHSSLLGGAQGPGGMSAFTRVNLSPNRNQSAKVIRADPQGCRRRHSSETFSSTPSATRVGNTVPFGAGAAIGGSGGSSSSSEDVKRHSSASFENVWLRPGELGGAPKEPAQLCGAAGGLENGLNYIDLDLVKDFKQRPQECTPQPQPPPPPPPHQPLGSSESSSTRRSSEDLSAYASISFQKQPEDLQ

Chain of IRS-1, endogenous in Rat-1 fibroblasts and L6GLUT4myc myoblasts (P35570 whole entry): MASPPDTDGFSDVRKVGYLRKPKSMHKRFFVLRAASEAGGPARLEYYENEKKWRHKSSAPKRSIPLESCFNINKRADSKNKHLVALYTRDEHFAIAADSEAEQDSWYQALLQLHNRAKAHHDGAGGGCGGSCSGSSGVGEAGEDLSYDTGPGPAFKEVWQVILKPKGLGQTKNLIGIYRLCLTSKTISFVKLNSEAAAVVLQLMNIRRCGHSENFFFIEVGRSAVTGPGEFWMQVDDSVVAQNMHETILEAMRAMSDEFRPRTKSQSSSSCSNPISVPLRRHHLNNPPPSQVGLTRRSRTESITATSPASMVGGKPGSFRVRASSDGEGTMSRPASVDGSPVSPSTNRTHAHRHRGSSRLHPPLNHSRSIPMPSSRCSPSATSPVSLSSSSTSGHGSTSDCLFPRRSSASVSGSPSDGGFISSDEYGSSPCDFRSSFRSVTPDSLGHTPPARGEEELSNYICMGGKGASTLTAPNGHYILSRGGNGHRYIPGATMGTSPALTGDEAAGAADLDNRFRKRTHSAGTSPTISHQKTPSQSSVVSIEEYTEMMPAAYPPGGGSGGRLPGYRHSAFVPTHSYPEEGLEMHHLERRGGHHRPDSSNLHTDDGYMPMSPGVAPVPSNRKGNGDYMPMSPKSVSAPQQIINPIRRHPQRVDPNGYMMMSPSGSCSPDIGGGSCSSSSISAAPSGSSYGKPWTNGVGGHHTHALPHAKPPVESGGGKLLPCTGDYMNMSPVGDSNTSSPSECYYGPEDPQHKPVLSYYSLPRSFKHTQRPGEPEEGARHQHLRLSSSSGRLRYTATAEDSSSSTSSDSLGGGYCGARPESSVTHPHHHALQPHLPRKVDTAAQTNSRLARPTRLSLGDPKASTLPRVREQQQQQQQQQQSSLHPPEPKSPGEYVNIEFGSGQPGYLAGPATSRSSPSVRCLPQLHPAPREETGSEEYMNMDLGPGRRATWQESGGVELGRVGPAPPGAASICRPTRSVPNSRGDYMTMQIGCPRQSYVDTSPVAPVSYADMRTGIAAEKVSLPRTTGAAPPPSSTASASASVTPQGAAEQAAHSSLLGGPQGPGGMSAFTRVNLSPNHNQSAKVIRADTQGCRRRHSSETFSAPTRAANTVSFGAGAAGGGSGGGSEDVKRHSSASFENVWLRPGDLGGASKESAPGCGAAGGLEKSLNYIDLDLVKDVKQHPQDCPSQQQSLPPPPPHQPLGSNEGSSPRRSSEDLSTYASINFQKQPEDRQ

- insulin-dependent GLUT4myc membrane translocation in L6GLUT4myc myoblasts [1]: > 90%
- IRS-1 tyrosine phosphorylation in insulin-treated cells [2]: > 5 fold
Substance: HA-tagged dominant-negative PHIP (DN-PHIP), PHIP PBR region alone (residues 8-209) (from UniProt Q8VDD9 927-1128)
